Assay results published in patent US20100028366A1, “SYNERGISTIC EFFECT BETWEEN A […] AND ANOTHER OXIDATIVE INDUCING SYSTEM FOR TREATING TUMORS” (priority 2005, published 2010).

Columns and labels:
W&Wlis cells [1] = assay: Determination of the extracellular peroxide concentration; type: cell-based, canine; conditions: 48 hours; 0.5 mg/ml of linamarin and/or 5 mEU/ml of glucose oxidase; control approximately 20 μM
Description: The H2O2 levels (FIG. 3B) produced extracellularly in the combined therapy were further studied in the invention. To do so, the amount of H2O2 present in the culture medium of W&Wlis cells at 48 hours in a treatment with 0.5 mg/ml of linamarin, in the presence of 5 mEU/ml of glucose oxidase or in the combination of both treatments, was analyzed although positive results were also obtained using other concentrations.
The samples to be analyzed were diluted in 1 ml of 0.1 M phosphate buffer pH 7.4. Then 3.7 EU/ml of peroxidase (Sigma-Aldrich, St. Louis, USA) and 0.1 mg/ml of ortho-dianisidine (Sigma-Aldrich, St. Louis, USA) were added. The samples were incubated at room temperature for 30 minutes and absorbances at 436 nm were determined. The H2O2 concentration was obtained by interpolation of the data obtained in a standard line performed with increasing concentrations of H2O2.

W&Wlis cells [2] = assay: AIF location study by immunofluorescence; type: cell-based, canine; conditions: 5 mEU/ml glucose oxidase, with or without 500 μg/ml linamarin
Description: Nevertheless, the activation of AIF could be caused by a mechanism that is PARP-1-independent (Cregan, 2004). AIF is a protein residing in the mitochondrion and when activated, it translocates to the nucleus in which it activates apoptosis. The possible translocation of AIF was analyzed by immunofluorescence with antibodies specific against AIF of W&Wlis cells treated with the therapy.
The cells were seeded on cover slips in 24-well plates and were treated according to the requirements of each experiment. After the appropriate incubation time for each assay, the cells were fixed with 4% paraformaldehyde for 30 minutes at room temperature or methanol at −20° C. for 10 minutes. The samples were subsequently permeabilized 10 minutes with PBS supplemented with triton X-100 or 0.1% sodium dodecyl sulfate (SDS) and were blocked by incubating for 30 minutes with PBS with 0.1% triton X-100 and with 1% bovine serum albumin, or PBS with 0.01% SDS and a 10% fetal calf serum. They were subsequently incubated for 45 minutes with the primary antibody at room temperature or overnight at 4° C. The antibodies used were anti-linamarase (1/200, supplied by Monica Hughes) and anti-AIF (1/50, Cell Signaling Technology). The secondary antibody used was anti-rabbit IgG coupled to fluorescein (1/50, Amersham Pharmacia Biotech). […]

W&Wlis cells [3] = assay: Analysis of the type of death by flow cytometry (annexin V-FITC/propidium iodide); type: cell-based, canine
Description: The annexin V-FITC and propidium iodide assay was performed in parallel by flow cytometry. The pattern of death of the system was analyzed when adding 5 mEU/ml of glucose oxidase and the combined therapy (5 mEU/ml of GO and 500 μg/ml of linamarin) at 48 hours, followed by the control of untreated cells and of the cells incubated with 500 μg/ml of linamarin at 96 hours. Furthermore, another group of cells was subjected to the same conditions except 10 mM of N-acetyl cysteine (NAC) were added. The cells treated with the combined therapy were subsequently studied at 48 hours in the absence and presence of 100 μM of Z-VAD-fmk, followed by the control of treatment of the cells with UV in the same conditions. Finally, the cells treated with the combined therapy were shown at 48 hours in the absence and presence of 300 μM of 1,5-isoquinolinediol (DIQ), observing that the pattern of death is not modified when PARP-1 is inhibited (FIG. 4).
10^5 W&Wlis cells were seeded in test tubes with a screw-on cap and flat side (Nunc). After 24 hours, different amounts of linamarin (50, 200 or 500 μg/ml) and glucose oxidase (5 mEU/ml) were added in the specified cases. In the appropriate assays, the medium was supplemented with N-acetyl cysteine (10 mM), 1,5-isoquinolinediol (300 μM) or Z-VAD-fmk (100 μM). […] They were centrifuged for 5 minutes at 1200 rpm and the cell precipitate was washed first with PBS and then with binding buffer (0.1 M Hepes/NaOH pH 7.4, 1.4 M NaCl and 25 mM CaCl2). The cells were again precipitated and resuspended in 100 μl of binding buffer supplemented with 5 μl of annexin V-FITC and 2.5 μg/ml of propidium iodide. The samples were incubated for 15 minutes in the dark. Data acquisition and analysis was carried out by means of a FACSCalibur flow cytometer (DB Biosciences) with the Cell Quest program.

Swiss mice = assay: Toxicity of glucose oxidase in Swiss mice; type: in vivo; conditions: intraperitoneally and intravenously
Description: The toxicity of glucose oxidase was evaluated in Swiss mice weighing about 20 grams, intraperitoneally and intravenously inoculated with different amounts of the purified enzyme. […] This allowed establishing an optimal dose range for GO for the combined therapy in this type of animal.

W&Wlis cells [4] = assay: DNA content analysis by flow cytometry, labeling with propidium iodide; type: cell-based, canine; design: unit not given here; conditions: 0 μg lin, 5 mEU/ml GO
W&Wlis cells [5] = assay: Structural modifications of the mitochondrion (pDsRed2-mito, confocal microscopy); type: cell-based, canine; conditions: linamarin 500 μg/ml from 48 hours; glucose oxidase 5 mEU/ml; combination after 24 hours
Description: For the purpose of studying the mitochondrial dynamics occurring as a result of the oxidative stress caused by the activity of the claimed system, W&Wlis cells were stably transfected with the plasmid pdsRed2-mito (Clontech) containing the gene of the one red fluorescent protein carried by a transport signal peptide to the mitochondrion. This allowed viewing the mitochondria of cells treated with linamarin and glucose oxidase by fluorescence microscopy. […] This effect starts to be observed 48 hours after treatment with linamarin (FIG. 1B) and becomes more pronounced after 72 hours, a slight swelling of the fragments (FIG. 1C) being observed.
To study the structural modifications of the mitochondrion during therapy, the W&W and W&Wlis cells were transfected with the plasmid pDsRed2-mito (Clontech, BD Bioscience) containing the gene of a red fluorescent protein which is expressed exclusively in mitochondria. The transfection was performed similarly to the previous section and clones were selected by resistance to neomycin (0.75 and 1.5 mg/ml respectively). The cells from stable expression clones of the protein were seeded in multiwell plates on cover slips (2.5×10^4) and were treated with linamarin (50, 200 or 500 μg/ml) and glucose oxidase (5 mEU/ml). After the suitable incubation time for each experiment (24, 48 or 72 hours) elapsed, the cells were fixed with 4% paraformaldehyde. […]

W&Wlis cells [6] = assay: Measurement of intracellular ATP; type: cell-based, canine; conditions: linamarin (500 μg/ml) and/or glucose oxidase (5 mEU/ml), over time, versus untreated cells
Description: The levels of intracellular energy in the form of ATP decrease when a blockage of the mitochondrial electron transport chain occurs since it is the essential source of obtaining energy of the cells. […] This effect is due to the fact that the maximum H2O2 production by glucose oxidase occurs at short times because the cells have the ability of detoxifying the peroxide and due to the fact that glucose oxidase is inactivated over time by the serum proteins.
10^5 W&Wlis cells were seeded in test tubes with a screw-on cap and flat side (Nunc). After 24 hours, the medium was changed, adding linamarin (500 μg/ml) and glucose oxidase (5 mEU/ml) where appropriate. After 4, 8, 12, 24, 48 or 72 hours, the cells were centrifuged and processed following the instructions of the ATP Bioluminescence Assay Kit CLS II, of Roche Applied Science. The luminescence was analyzed with a Monolight 2010 luminometer (Analytical Luminescence Laboratory, San Diego) and expressed in relative light units (RLU).

[7] = 0 μg lin, 5 mEU/ml GO, 48 hours, NAC (10 mM)
[8] = Table 4, 0 μg lin, 5 mEU/ml GO, 48 hours, Z-VAD-fmk (100 μM)
[9] = Table 4, 0 μg lin, 5 mEU/ml GO, 48 hours, control (no Z-VAD-fmk)
[10] = Table 5, GO, 32 hours, DIQ (300 μM)
[11] = Table 5, GO, 32 hours, control (no DIQ)
[12] = Table 5, GO, 48 hours, DIQ (300 μM)
[13] = Table 5, GO, 48 hours, control (no DIQ)

B1: GO: glucose oxidase enzyme catalyzing the conversion of glucose into gluconic acid, generating hydrogen peroxide (protein, UniProt P13006 17-605, looked up)
Glucose oxidase: LPHYIRSNGIEASLLTDPKDVSGRTVDYIIAGGGLTGLTTAARLTENPNISVLVIESGSYESDRGPIIEDLNAYGDIFGSSVDHAYETVELATNNQTALIRSGNGLGGSTLVNGGTWTRPHKAQVDSWETVFGNEGWNWDNVAAYSLQAERARAPNAKQIAAGHYFNASCHGVNGTVHAGPRDTGDDYSPIVKALMSAVEDRGVPTKKDFGCGDPHGVSMFPNTLHEDQVRSDAAREWLLPNYQRPNLQVLTGQYVGKVLLSQNGTTPRAVGVEFGTHKGNTHNVYAKHEVLLAAGSAVSPTILEYSGIGMKSILEPLGIDTVVDLPVGLNLQDQTTATVRSRITSAGAGQGQAAWFATFNETFGDYSEKAHELLNTKLEQWAEEAVARGGFHNTTALLIQYENYRDWIVNHNVAYSELFLDTAGVASFDVWDLLPFTRGYVHILDKDPYLHHFAYDPQYFLNELDLLGQAAATQLARNISNSGAMQTYFAGETIPGDNLAYDADLSAWTEYIPYHFRPNYHGVGTCSMMPKEMGGVVDNAARVYGVQGLRVIDGSIPPTQMSSHVMTVFYAMALKISDAILEDYASMQ
**Q.** What does the source list for B1?
**A.** extracellular H2O2 concentration in the culture medium (W&Wlis cells [1]): did not cause significant variations; AIF location (W&Wlis cells [2]): typically mitochondrial AIF pattern; Apoptosis (W&Wlis cells [3]; 0 μg lin, 5 mEU/ml GO, 24 h): 5.98; Necrosis (W&Wlis cells [3]; 0 μg lin, 5 mEU/ml GO, 24 h): 12.27; Apoptosis (W&Wlis cells [3]; 0 μg lin, 5 mEU/ml GO, 48 h): 8.34; Necrosis (W&Wlis cells [3]; 0 μg lin, 5 mEU/ml GO, 48 h): 4.50; Apoptosis (W&Wlis cells [3]; [7]): 5.98; Necrosis (W&Wlis cells [3]; [7]): 5.42; Apoptosis (W&Wlis cells [3]; [8]): 13.94; Necrosis (W&Wlis cells [3]; [8]): 18.92; Apoptosis (W&Wlis cells [3]; [9]): 3.27; Necrosis (W&Wlis cells [3]; [9]): 29.59; Apoptosis (W&Wlis cells [3]; [10]): 9.32; Necrosis (W&Wlis cells [3]; [10]): 16.69; Apoptosis (W&Wlis cells [3]; [11]): 6.50; Necrosis (W&Wlis cells [3]; [11]): 27.11; Apoptosis (W&Wlis cells [3]; [12]): 17.52; Necrosis (W&Wlis cells [3]; [12]): 20.89; Apoptosis (W&Wlis cells [3]; [13]): 12.92; Necrosis (W&Wlis cells [3]; [13]): 31.87; toxicity (Swiss mice; daily doses between 0.25 and 0.1 EU/g): no harmful effect; toxicity (Swiss mice; doses of 1 and 0.5 EU/g, first 24 hours post-administration): lethal effect; DNA content by flow cytometry, labeling with propidium iodide (W&Wlis cells [4]; 24 hours): 1.94; DNA content by flow cytometry, labeling with propidium iodide (W&Wlis cells [4]; 48 hours): 1.03; mitochondrial pattern (W&Wlis cells [5]): did not cause any structural change in most of the mitochondria; intracellular ATP levels (W&Wlis cells [6]): moderate and transitory reduction of ATP after 6 hours
